From patent publication US20130177598A1, “DISCRETE SIZE AND SHAPE SPECIFIC PHARMACEUTICAL ORGANIC NANOPARTICLES” (The University of North Carolina at Chapel Hill, priority 2007, published 2013)

Assay: Enzymatic activity assay of free horseradish peroxidase and PRINT particles thereof
Format: biochemical
Settings: 10 ng/mL-10 mg/mL in buffer; compared with free horseradish peroxidase
Protocol: A standard enzymatic assay of horseradish peroxidase (reference P6782; Sigma Aldrich) was conduted on free horseradish peroxidase and PRINT particles thereof in the concentration range of 10 ng/mL-10 mg/mL in buffer. The substrates used were hydrogen peroxide and pyrogallol. […] See, FIG. 32.

For “horseradish peroxidase PRINT particles: PRINT particles of horseradish peroxidase, 200 nm x 200 nm cylinders”, the “retention of biological structure and function after molding (enzyme activity)” value was “retains biological structure and function”.
